Assay: soluble on expression in E. coli; label from the status in PepcDB or PDB records

| Sequence | soluble on expression in E. coli |
| --- | --- |
| MAHHHHHHMRRTIRVFTGKLLWEDFTNTRLITINREKALNSMDLEMVKAMQRAYVHEPHAKGDSALFVVKGAGNKSFCAGGDIVSLKDRYDVAAEFFYTEYQMNYHILTMPNPQVSLWDGYVMGGGVGVSVHGRYRVASERAVFAMPETAIGLFPDVGASWFLPRLKMKGLGLYLGLTGARLKGADVAHTGLATHYVPSARFCELEERLCHIDDPAKVEACLEEFAVRDLPPFTLEPHRETIEKSFALEEKTTVEGIYESLSADGGEFAKGTINTLNRMAPTSLRVSLEMQKRGVKMTDPADVFRMDYIGSLRTHANSDFHEGVRALLVDKTKDPKWKPAKLSDVTADYVEAYFKPMGNQARQWHPTVPY | soluble |
| MAHHHHHHMSAEGLSRFFTENLTEEGRSDLNQWEAKTLEFAQRVNRDGCEGVAFITSGGTAVPLEVHAVRFVTNFSSGGRGAVLVEELLARGWACILLRSKTSQLPFRRLVDNMTTEQFFAELNAPQKSCDVSAAIEAYTKYKSRFLEIPYYTVVEYLYLFSLLTGTLSHRAECLRQTPMMLLAAAAVSDYYIPESRLSHHKMSGGDGLTIQFNNVPKILDLISEEWHGSSRAAPRYLITFKLETEEEQLKAKALRNLGLYRCDAVVANMLQNYRERVLVFWNGEEQNPTLLHRSPNGSVESLMIDHVLQRIKNHAKGCGMQYKLEGRRR | soluble |
| MAHHHHHHMSALKDKTGRFVVLDKNASNYESLVDQEMNNVYERVMKLDPNQVEFLQAFHEILYSLKPLFMEEPKYLPIIETLSEPERAIQFRVCWLDDNGVQRKNRCFRVQYNSALGPYKGGLRFHPSVNLSIVKFLGFEQIFKNSLTGLSMGGGKGGSDFDPKGKSDNEILKFCQAFMNELYRHIGPCTDVPAGDIGVGGREIGYLYGQYKKIVNSFNGTLTGKNVKWGGSNLRVEATGYGLVYFVLEVLKSLNIPVEKQTAVVSGSGNVALYCVQKLLHLNVKVLTLSDSNGYVYEPNGFTHENLEFLIDLKEEKKGRIKEYLNHSSTAKYFPNEKPWGVPCTLAFPCATQNEINLEDAKLLQKNGCILVGEGANMPSTVDAINLFKSNNIIYCPSKAANAGGVAISGLEMSQNFQFSHWTRETVDEKLKEIMRNIFIACSENALKYTKNKYDLQAGANIAGFLKVAESYIEQGCF | soluble |
| MAHHHHHHMSATPKQPSTATTSISSDEKWDHSLETLIRKSTIGFASGILPGLLLARSPAARSAIIALCTGVGSGIAYGEARYLFDHDIMFDKRHLIQVQVVGGSSSQQSGAQKSME | not soluble |
| MAHHHHHHMSDEDHDFAHQGGGDNASKTYPMAAGALKKGGYVCINGRPCKVIDLSVSKTGKHGHAKVSIVATDIFTGNRLEDQAPSTHNVEVPFVKTFTYSVLDIQPNEDPSLPSHLSLMDDEGESREDLDMPPDAALATQIKEQFDSGKEVLVVVVSAMGTEQVLQTKNAAEK | soluble |
| MAHHHHHHMSFAGLQKRLKNKAVATTTTNSTPPSSDAKTDNIESSSSVYDVAAREARANHEERKRQRSPHDKENTAYNPTINERNGPADMLSDHPSVEKASSKTLTETEFLERRHLAEEVVLQCAEAMSRNMELAATSIDKIDIKKESEVYDMSGLPLPLCQFLEQRLQRSSDATAMLISTCEEEEHNLVSALRSPSNLPMLFPPQVEDFVTTLRTLWLALCWHWVMALRGKEGNEGKEVSENGWSYNVYLLSRHALPITVRNTRGRDVALALQAWQEAYRVRQNMLDFLAYILHDMGVVLRFSGDDASKGDENLRIVPPKIADSIFCMVQHLRRRDFTTVRQAYVELTMGTANWKLGLFSGGEVHMRRSMERIERRRIEHLLHNERAVRLLHVLRELIEFVQKNEVMLLHTGIFAREKSMKEHSP | not soluble |
| MAHHHHHHMSINRYNYKTMNSLLKDKIPQHFDILPHTTIKCIIHPSVIFTILDAYLRRDEDQTHVIGTLMGSVIDTNLVEISDCFVDKHSLNEGGFLQIIKDHHETMYELKQKIRPRDQVVGWFCSGSELSELSCAVHGWFKEHNSISKFYPHTPLNEPIHLLVDASLESGFLNIKAYVQLPISLVKDYFVHFHEIQTELLPCNVERADVSLVKGNIHAHKDNHTNNLEHNHNNNQIDMNELSLKKLLIMLKQCKSYVQDVIDQKKKGNISVGRYLHKVLSNDTFLTLEKFDSINESVLQDNLMISYLSNLANLQFLIAEKLNSSSLQ | not soluble |

Source: the DeepSol protein solubility set
